Experimental data as given in patent US10233249B2, “Antibodies and methods for treating estrogen receptor-associated diseases” (BEIJING SHENOGEN PHARMA GROUP LTD., priority 2013, dated 2019).
“Also recorded” adds a separate entry of the source.

Assays:
[1] = tested on: BCAP37 breast cancer xenograft; assay: BCAP37 breast cancer xenograft model; format: in vivo; conditions: NOD-SCID mice, 1.25, 5 and 20 mg/kg SNGmB1, 3 mg/kg Herceptin, 17 days
Experimental: The ability of anti-ER-α36 antibody in inhibiting human tumor cell growth in Xenograft model was assessed using BCAP37 breast cancer model. […] The cells were implanted into NOD-SCID mice. […] After 17 days of treatment, the tumors were excised, and both tumor weight and volume were measured.

[2] = molecular target: T1, membrane bound ER-α36 protein in MCF-7 cells (Homo sapiens, UniProt P03372); assay: Immunofluorescence analysis of MCF-7 mammosphere; format: cell-based
T1 construct: endogenous in cells; host or cells: MCF7
T1 sequence (P03372 1-310 isoform P03372-4): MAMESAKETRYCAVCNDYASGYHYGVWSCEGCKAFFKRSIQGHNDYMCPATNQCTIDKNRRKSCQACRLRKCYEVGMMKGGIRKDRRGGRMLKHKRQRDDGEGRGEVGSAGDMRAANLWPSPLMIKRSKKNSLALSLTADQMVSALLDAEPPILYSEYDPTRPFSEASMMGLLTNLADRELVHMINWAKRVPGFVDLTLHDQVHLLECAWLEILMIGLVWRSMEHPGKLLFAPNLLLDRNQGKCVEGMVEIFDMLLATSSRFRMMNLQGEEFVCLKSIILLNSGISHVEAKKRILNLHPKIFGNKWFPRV
Experimental: The ability of SNGmB1 to detect membrane bound ER-α36 protein in MCF-7 cells was assessed using immunostaining. MCF-7 mammosphere was formed and immunostaining was performed by steps as follows:
1. MCF-7 cells were cultured in DMEM without phenol red for 2 days and stained with 7-aminoactinomycin D (7-AAD) followed by FACS sorting. The sorted cells were cultured in DMEM/F12 without phenol red medium (Gibo) with B27 (Invitrogen), EGF (BD Biosciences) and bFGF (BD Biosciences) for 6 days and the MCF-7 mammosphere was formed. 2. MCF-7 mammosphere was centrifuged at 1000 rpm for 4 min, and the supernatant was removed. 3. The mammosphere was washed with 500 μl PBS and was transferred to a 1.5 ml EP tube before centrifugation at 1000 rpm for 4 min, and the supernatant was discarded. 4. The precipitate was fixed with 500 μl paraformaldehyde (4%) for 20 min (or overnight), and was centrifuged at 1000 rpm for 4 min to move the supernatant. 5. The precipitate was washed with 500 μl PBS and centrifuged at 1000 rpm for 4 min, and the supernatant was discarded, wash three times using PBS. 6. The supernatant was removed and the precipitate was incubated with 50 μl goat serum blocking solution at 37° C. for 30 min; after centrifugation at 1000 rpm for 4 min, the supernatant was discarded. 7. […] The mammospheres was transferred to small observation dish, and stored at 4° C. to be detected.

[3] = molecular target: T2, stable 3T3 cell lines induced to express human ER-α36 protein (Homo sapiens, UniProt P03372, I452L); assay: FACS analysis of binding to inducible 3T3 cell lines; conditions: mouse IgG2b isotype control
T2 construct: expressed in transfected cells
T2 sequence (P03372 1-310 isoform P03372-4 I279L): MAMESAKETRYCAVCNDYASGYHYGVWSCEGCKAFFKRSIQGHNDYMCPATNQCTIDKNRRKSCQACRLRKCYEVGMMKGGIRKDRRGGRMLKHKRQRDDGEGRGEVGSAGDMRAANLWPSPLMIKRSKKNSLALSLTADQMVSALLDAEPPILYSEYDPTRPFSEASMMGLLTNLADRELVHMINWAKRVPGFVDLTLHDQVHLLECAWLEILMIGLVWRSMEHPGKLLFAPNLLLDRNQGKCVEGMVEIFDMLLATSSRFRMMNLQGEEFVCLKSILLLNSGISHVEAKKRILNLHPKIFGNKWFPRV

binding to 3T3 cell line induced to express human ER-α36 (FACS) [3]: specifically bound
B1: SNGmB1: mouse monoclonal anti-ER-α36 antibody (mIgG2b), light chain SEQ ID NO: 16, heavy chain SEQ ID NO: 18 (antibody, listed as Mus musculus)
heavy: QAYLQQSGAELVRPGASVKMSCKASGYTFTSHNMHWIKQTPRQGLEWIGAIHPVNGDTAYNQKFKGKATLTVDKSSSTAYLQLSSLTSEESAVYFCAREGYGSVDYWGQGTTLTVSSAKTTPPSVYPLAPGCGDTTGSSVTLGCLVKGYFPESVTVTWNSGSLSSSVHTFPALLQSGLYTMSSSVTVPSSTWPSQTVTCSVAHPASSTTVDKKLEPSGPISTINPCPPCKECHKCPAPNLEGGPSVFIFPPNIKDVLMISLTPKVTCVVVDVSEDDPDVQISWFVNNVEVHTAQTQTHREDYNSTIRVVSTLPIQHQDWMSGKEFKCKVNNKDLPSPIERTISKIKGLVRAPQVYILPPPAEQLSRKDVSLTCLVVGFNPGDISVEWTSNGHTEENYKDTAPVLDSDGSYFIYSKLNMKTSKWEKTDSFSCNVRHEGLKNYYLKKTISRSPGK
light: ETTVTQSPASLSMTIGEKVTIRCITSTDIDDDMNWYRKKPGQPPKLLISEGNTLRPGVPSRFSSSGYGTDFVFTIENMLSEDVADYYCLQSDNLPLTFGAGTKLELKRADAAPTVSIFPPSSEQLTSGGASVVCFLNNFYPKDINVKWKIDGSERQNGVLNSWTDQDSKDSTYSMSSTLTLTKDEYERHNSYTCEATHKTSTSPIVKSFNRNEC
inhibition of tumor growth [1]: inhibit tumor growth in a dose-dependent manner; also recorded: inhibited tumor cell growth in a does-dependent manner
immunostaining of membrane bound ER-α36 on MCF-7 mammospheres [2]: stained the MCF-7 mammospheres in a dose-dependent manner; also recorded: can detect membrane bound ER-α36 on MCF7
